The text below walks through data of patent publication US20180118814A1 (IGM BIOSCIENCES, published 2018).

The target in the assay is T1, HBsAg (Prospec HBS-872) (hepatitis B virus).
T1 chain: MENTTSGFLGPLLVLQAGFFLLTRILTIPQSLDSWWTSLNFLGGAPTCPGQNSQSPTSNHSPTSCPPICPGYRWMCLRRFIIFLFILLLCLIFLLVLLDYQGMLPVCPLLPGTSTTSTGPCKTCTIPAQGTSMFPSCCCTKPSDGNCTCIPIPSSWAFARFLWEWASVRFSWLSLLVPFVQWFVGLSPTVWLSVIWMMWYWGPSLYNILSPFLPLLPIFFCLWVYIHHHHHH
The assay can be described thus: ELISA, plate coated with HBsAg (Prospec HBS-872), anti-human lambda-HRP detection, weight concentrations.

B1: HBV23G (antibody, human IgG1, lambda, V domains shown)
VH: EVQVLESGGGLVQPGGSLRLSCAASGFRFSSYAMSWVRQAPGKGLEWVSGISGTGENTYYADSVKGRFTISRDNSKNTLYVQMNSLRAEDTAVYYCAKDAILGSGHPWYFHVWGRGTLVTVSS
VL: SYVLTQPPSVSVAPGQTARMTCGGNNIGSESVHWFQQKPGQAPVLVVYDDSDRPSGIPERFSGSNSGNTATLTISRVEAGDEADYYCQVWDSSSDHAVFGGGTQLTVLG
notes: also called IgG counterpart (HBV23G); human IgG antibody provided in Cerino et al. (2015)
For orientation: EC50 means the concentration needed to bring the measured effect to its halfway point. Lower therefore signals higher potency in that assay. In turn, B1 returned an EC50 of 0.03 µg/mL.

B2: HBV23MJ (antibody)
heavy: EVQVLESGGGLVQPGGSLRLSCAASGFRFSSYAMSWVRQAPGKGLEWVSGISGTGENTYYADSVKGRFTISRDNSKNTLYVQMNSLRAEDTAVYYCAKDAILGSGHPWYFHVWGRGTLVTVSSGSASAPTLFPLVSCENSPSDTSSVAVGCLAQDFLPDSITFSWKYKNNSDISSTRGFPSVLRGGKYAATSQVLLPSKDVMQGTDEHVVCKVQHPNGNKEKNVPLPVIAELPPKVSVFVPPRDGFFGNPRKSKLICQATGFSPRQIQVSWLREGKQVGSGVTTDQVQAEAKESGPTTYKVTSTLTIKESDWLSQSMFTCRVDHRGLTFQQNASSMCVPDQDTAIRVFAIPPSFASIFLTKSTKLTCLVTDLTTYDSVTISWTRQNGEAVKTHTNISESHPNATFSAVGEASICEDDWNSGERFTCTVTHTDLPSPLKQTISRPKGVALHRPDVYLLPPAREQLNLRESATITCLVTGFSPADVFVQWMQRGQPLSPEKYVTSAPMPEPQAPGRYFAHSILTVSEEEWNTGETYTCVVAHEALPNRVTERTVDKSTGKPTLYNVSLVMSDTAGTCY
light: SYVLTQPPSVSVAPGQTARMTCGGNNIGSESVHWFQQKPGQAPVLVVYDDSDRPSGIPERFSGSNSGNTATLTISRVEAGDEADYYCQVWDSSSDHAVFGGGTQLTVLGQPKAAPSVTLFPPSSEELQANKATLVCLISDFYPGAVTVAWKADSSPVKAGVETTTPSKQSNNKYAASSYLSLTPEQWKSHRSYSCQVTHEGSTVEKTVAPTECS
chain: not shown
notes: Human IgM with human J-chain; also called HBV23 anti-HBsAg IgM+human J-chain
In the case of B2, the response was half-maximal at 0.064 µg/mL (EC50).
